This note sets out measurements from article PMC6273887, “cDNA Isolation and Functional Characterization of UDP-D-glucuronic Acid 4-Epimerase Family from Ornithogalum caudatum” (Molecules, 2016).

Substrate in the data set: O=C(O)[C@H]1O[C@H](OP(=O)(O)OP(=O)(O)OC[C@H]2O[C@@H](n3ccc(=O)[nH]c3=O)[C@H](O)[C@@H]2O)[C@H](O)[C@@H](O)[C@@H]1O
The data set is described as follows: HPLC of UDP-GalA formation, Lineweaver-Burk plot. The class given is biochemical, Albuca bracteata. The conditions noted are these: 100 mM PBS, pH 7.8, 37 °C, 20 min, 0.156-10 mM UDP-GlcA, unpurified Pichia supernatant, substrate misprinted UDP-D-Glc, UDP-GlcA in b32 and b56.

B1: OcUGlcAE3 (Albuca bracteata) (protein)
chain: MDAMISPSTPGKFKPEKPHHHLHHHHHRPLFRLQHSPLFKCGLIVVCASVVVVLLLCLAPSHPSSSSSSSSSPFAASRIERRSLSASSSSSWGGAEWEKRVRYSARIRRVGGFSVLVTGAGGFVGTHVSAALKRRGDGVLGLDCFNDYYEPSLKRARQALLDRIGVFVVEGDINDGPLLRKLFDVVPFTHVMHLAAQAGVRYAMKNPASYVHSNIAGLVTLLEACKSADPQPAVVWASSSSVYGLNTKVPFSEFHRTDRPASLYAATKKAGEEIAHTYNHIYGLSITGLRFFTVYGPWGRPDMAYFFFTNDLLNGKPITIFEGPKGESVARDFTYIDDIVQGCIGALDTAKKSTGTGGKKRGPAQLRVYNLGNTSPVPVTELVTILERLLKVKANKKVVKMPANGDVQFTHANISLAQRELGYHPTTDLKTGLKRFVRWYIEYYNPPGVASLTKKSARSNSS
notes: full-length ORF (1389 bp); 12,000 g/160,000 g lysate supernatant, unpurified
As for B1, the Km was 0.17 ± 0.07 mM.

What is called Km is the concentration of substrate that gives half-maximal velocity.
